pKd: −log10 of the molar value.

Assay [1] addresses PfCSPm (PfCSP_SAmut_C5S), stabilized mutant form of PfCSP (Plasmodium falciparum) (UniProt Q7K740). Description: ITC, antibody titrated into PfCSPm, pH 7.4, 25 C, two sets of sites; second site. On the technique in general: ITC needs no label: the signal is the heat of the interaction.
Assay [2] has the same target. As to the kind of experiment: ITC, two-site model.
For assay [3] the target is unchanged. As to the kind of experiment: ITC, antibody titrated into PfCSPm, pH 7.4, 25 C, two sets of sites; first (junctional) site.
The target is the same in assay [4]. As to the kind of experiment: ITC, antibody titrated into PfCSPm; second site.
Assay [5] shares this target. Description: ITC, antibody titrated into PfCSPm; first site.
For assay [6] the target is unchanged. As to the kind of experiment: ITC, two-site model [lower table].
Assay [7] shares this target. As to the kind of experiment: ITC.

Usually pKd stands for the negative decadic logarithm of the Kd, by convention in mol/L. Read a low pKd as a large Kd. For mature CIS43 antibody (IgG), the pKd in assay [1] was 7.20. Also, in assay [2], the -TΔS1 is 13.4 kcal/mol, the -TΔS2 was determined as 0.9 kcal/mol, the ΔG1 was -10.6 kcal/mol and the ΔG2 was -9.8 kcal/mol. In assay [2], this substance returned a ΔH1 of -24 kcal/mol and a ΔH2 of -10.7 kcal/mol. Also, in assay [3], the pKd is 7.74. Besides, in assay [4], the stoichiometry worked out at 5.8. The substance also returned a stoichiometry in assay [5] of 2.4.

In assay [6], “mature CIS43 with L98I in the heavy chain (antibody)” yielded a -TΔS1 of 8.8 kcal/mol, a -TΔS2 of -0.9 kcal/mol, a ΔG1 of -10.8 kcal/mol and a ΔG2 of -10.2 kcal/mol. In assay [6], this substance registered a ΔH1 of -19.6 kcal/mol and a ΔH2 of -9.3 kcal/mol. In assay [7], this substance showed a pKd of 7.96, a change in ΔG of 0.2 kcal/mol and a fold affinity increase over mature CIS43 of 1.6 fold.

For the origin of these results see patent publication US20250011406A1.
